In the RNAGym collection of RNA variant scans (doi:10.7554/elife.80360):

B1: Hairpin Ribozyme (parent)
chain: GUCCUCUUUCACGUGCGCGUGAAAGAGAGAAGUGAACCAGAGAAACACACGUUGUGGUAUAUUACCUGGUA

Variants of: B1
Assay: self-cleavage, relative activity (ratio to wild type); higher = more cleavage; co-transcriptional

Compared with G19U U20C, G19C A49U is lower in self-cleavage: 0.731 for the first, 0.207 for the second.

Going from G19C U62G to G19C A23U, the self-cleavage rises from 0.282 to 0.656.

Compared with U20A C46A, U20A C46G is lower in self-cleavage: 0.265 for the first, 0.162 for the second.

First: C18G A30C
Second: C18G A30U
The self-cleavage of the first is higher: 0.275 for the first, 0.0888 for the second.

First: G19A G54A
Second: G19A G54U
The self-cleavage of the first is lower: 0.51 for the first, 0.535 for the second.

First: G19U G51C
Second: G19U G51U
The self-cleavage of the first is lower: 0.707 for the first, 0.947 for the second.

Compared with G19U G51A, U20A C65U is lower in self-cleavage: 0.956 for the first, 0.388 for the second.

Compared with C18U U53C, G19U G25C is lower in self-cleavage: 1.03 for the first, 0.537 for the second.

Going from G19U G25A to G19U G25U, the self-cleavage rises from 0.33 to 0.548.

Compared with G19A U33A, G19C G25C is higher in self-cleavage: 0.0829 for the first, 0.46 for the second.

First: G19A G25A
Second: G19C C38G
The self-cleavage of the first is higher: 0.368 for the first, 0.142 for the second.

First: G19C A28U
Second: C18U G51U
The self-cleavage of the first is lower: 0.63 for the first, 0.993 for the second.

Compared with G19C G56C, C18U A36C is higher in self-cleavage: 0.124 for the first, 0.65 for the second.

Going from C18U A36U to C18G A39C, the self-cleavage falls from 0.634 to 0.587.

First: C18G A39G
Second: C18G A39U
The self-cleavage of the first is lower: 0.281 for the first, 0.474 for the second.

Compared with U20A G25C, U20A G27A is lower in self-cleavage: 0.447 for the first, 0.385 for the second.

Going from U20A G27C to C18G A43G, the self-cleavage falls from 0.175 to 0.0801.

Compared with G19A A45C, G19A A45G is higher in self-cleavage: 0.108 for the first, 0.195 for the second.

Going from U20C A24C to U20A G56U, the self-cleavage falls from 0.612 to 0.114.

First: G19U G34A
Second: G19U G57A
The self-cleavage of the first is higher: 1.19 for the first, 0.169 for the second.

Going from G19C C37G to G19C C37U, the self-cleavage rises from 0.356 to 0.454.

Compared with G19C C37A, C18G U70G is higher in self-cleavage: 0.32 for the first, 0.537 for the second.

Going from G19C A41G to G19C A44C, the self-cleavage falls from 0.743 to 0.152.

Going from G19U C37U to G19A U63C, the self-cleavage falls from 0.588 to 0.213.

Compared with G19A U63A, C18G A36C is higher in self-cleavage: 0.104 for the first, 0.473 for the second.

Going from G19C G21A to U20A A24G, the self-cleavage rises from 0.657 to 0.895.

Going from G19C U52C to G19C G29U, the self-cleavage falls from 0.775 to 0.159.

Compared with C18G G32C, U20A U53G is higher in self-cleavage: 0.0857 for the first, 0.673 for the second.

Compared with U20A U53C, G19A A26U is lower in self-cleavage: 0.682 for the first, 0.563 for the second.

Going from G19U U62C to G19U G68U, the self-cleavage rises from 0.256 to 0.338.

Compared with U20C A31U, C18G U55C is higher in self-cleavage: 0.188 for the first, 0.233 for the second.

First: C18G U55A
Second: U20A C37U
The self-cleavage of the first is lower: 0.145 for the first, 0.511 for the second.

Compared with U20A U67G, C18U U62A is lower in self-cleavage: 0.256 for the first, 0.225 for the second.

Compared with G19U U63G, U20C A26U is higher in self-cleavage: 0.205 for the first, 0.692 for the second.

Going from U20A U63A to U20A U63G, the self-cleavage rises from 0.261 to 0.263.

Compared with G19U A35G, G19U A35U is lower in self-cleavage: 1.06 for the first, 0.626 for the second.

Compared with G19A A22U, G19A A22G is higher in self-cleavage: 0.531 for the first, 0.714 for the second.

Compared with C18U C37G, C18U C37A is lower in self-cleavage: 0.352 for the first, 0.329 for the second.

Compared with C18U A45U, C18U A45G is higher in self-cleavage: 0.109 for the first, 0.174 for the second.

First: C18U A71U
Second: G19C U55A
The self-cleavage of the first is higher: 0.832 for the first, 0.17 for the second.

Going from G19C U55G to G19U A23U, the self-cleavage rises from 0.335 to 0.944.

First: G19U A23C
Second: G19C A39C
The self-cleavage of the first is higher: 0.666 for the first, 0.44 for the second.

First: G19C A39U
Second: G19A A61C
The self-cleavage of the first is higher: 0.441 for the first, 0.169 for the second.

First: G19U A36G
Second: G19U A36C
The self-cleavage of the first is higher: 1 for the first, 0.554 for the second.

Compared with G19U A36U, G19C G32U is lower in self-cleavage: 0.628 for the first, 0.173 for the second.

Compared with G19C A36U, G19A A71C is higher in self-cleavage: 0.603 for the first, 1.38 for the second.

Compared with G19U A49C, G19U A49G is higher in self-cleavage: 0.18 for the first, 0.545 for the second.

Compared with C18G G57C, U20A A30U is lower in self-cleavage: 0.194 for the first, 0.145 for the second.

First: G19C A35G
Second: G19C A61C
The self-cleavage of the first is higher: 0.74 for the first, 0.333 for the second.

Going from U20A A28G to U20A A28C, the self-cleavage falls from 0.833 to 0.482.

Compared with G19A A24G, G19A C46A is lower in self-cleavage: 0.737 for the first, 0.176 for the second.

Going from G19A C46U to C18U U55C, the self-cleavage rises from 0.165 to 0.318.

Compared with G19U A71U, G19U A71C is higher in self-cleavage: 0.738 for the first, 1.39 for the second.

Going from G19U A43U to G19U A43G, the self-cleavage rises from 0.134 to 0.136.

First: G19U A47C
Second: G19U A47G
The self-cleavage of the first is higher: 0.418 for the first, 0.24 for the second.

Going from C18U U58A to U20A G57U, the self-cleavage falls from 0.657 to 0.259.

Going from C18U G42A to C18U G42C, the self-cleavage rises from 0.167 to 0.416.

Compared with G19A U52A, C18U G54C is lower in self-cleavage: 0.809 for the first, 0.543 for the second.

Compared with G19U A31C, U20A G34U is higher in self-cleavage: 0.0951 for the first, 1.29 for the second.

Compared with U20A A35U, U20A U70G is lower in self-cleavage: 0.872 for the first, 0.651 for the second.

Going from U20A U70A to C18G C50U, the self-cleavage falls from 0.784 to 0.24.

First: G19A G34A
Second: G19A G34C
The self-cleavage of the first is lower: 1.02 for the first, 1.32 for the second.

First: G19A G34U
Second: G19A U67G
The self-cleavage of the first is higher: 1.18 for the first, 0.199 for the second.

Going from C18U G25A to C18U G25C, the self-cleavage falls from 0.703 to 0.491.

First: C18U C50G
Second: G19A A47C
The self-cleavage of the first is lower: 0.217 for the first, 0.308 for the second.

Going from G19A U58C to U20A G32C, the self-cleavage falls from 0.856 to 0.174.

Going from U20A G32U to G19C A71C, the self-cleavage rises from 0.0356 to 1.24.

Going from C18G U63G to C18G U63C, the self-cleavage rises from 0.27 to 0.276.

Going from G19A G40C to C18U A26C, the self-cleavage rises from 0.0669 to 0.525.

Going from C18G A47G to G19A A36G, the self-cleavage rises from 0.198 to 0.997.

Going from C18U A30U to C18U A35U, the self-cleavage rises from 0.203 to 0.802.

First: G19C A22G
Second: G19C A22C
The self-cleavage of the first is higher: 0.866 for the first, 0.702 for the second.

Going from G19C U20A to G19C U20C, the self-cleavage falls from 0.965 to 0.809.

First: G19C U20G
Second: G19U G42A
The self-cleavage of the first is higher: 1.05 for the first, 0.175 for the second.

Going from G19U G42U to G19U C48A, the self-cleavage falls from 0.346 to 0.135.

Compared with U20A A31G, G19U G40C is lower in self-cleavage: 0.466 for the first, 0.11 for the second.

First: C18G G68C
Second: C18G G42U
The self-cleavage of the first is lower: 0.266 for the first, 0.279 for the second.

Going from C18G G42A to G19A A30U, the self-cleavage falls from 0.179 to 0.14.

Compared with U20A U52C, U20A U52A is lower in self-cleavage: 0.96 for the first, 0.844 for the second.

Going from U20A A61C to U20A U55C, the self-cleavage rises from 0.156 to 0.258.

First: U20A U55A
Second: U20A U55G
The self-cleavage of the first is lower: 0.252 for the first, 0.256 for the second.

Compared with U20A A59C, U20A A59G is higher in self-cleavage: 0.0988 for the first, 0.182 for the second.

Compared with U20C A22C, C18U G69A is lower in self-cleavage: 0.482 for the first, 0.476 for the second.

Variant G19C A26C has a self-cleavage of 0.272.
